Test results taken from article PMC4058522 (2014).
Square brackets hold non-standard residues; d marks the D form. Ends that are not written are not given here. pS = N[C@@H](COP(=O)(O)O)C(=O)O

Biological target: mouse Pih1 PIH domain Lys 153 charge reversal mutant (mouse, UniProt Q9CQJ2 1-200, Charge reversal of a conserved residue Lys 153)
Experiment: ITC

Sequence of mouse Pih1 PIH domain Lys 153 charge reversal mutant (Q9CQJ2 other isoform, or with tags, fused parts or gaps Charge reversal of a conserved residue Lys 153 | mutant): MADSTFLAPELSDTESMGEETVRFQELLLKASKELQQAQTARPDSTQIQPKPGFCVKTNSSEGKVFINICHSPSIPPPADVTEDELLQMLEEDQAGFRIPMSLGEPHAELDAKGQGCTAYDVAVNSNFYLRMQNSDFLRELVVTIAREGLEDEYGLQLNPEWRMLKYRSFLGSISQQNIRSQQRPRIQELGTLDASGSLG

B1: mouse Tel2 484-496 peptide, bis-phosphorylated pSer 488 and pSer 492 (QGSDpSELDpSDDEF) (peptide)
peptide: QGSD[pS]ELD[pS]DDEF
B1 gave a Kd of 220 nM.
